Measured values published in paper PMC3306459 (Journal of Inorganic Biochemistry, 2011).
Where a chain is given by its changes, count along the chain named. In names and notes the source's numbering stands.

T1: G450A iNOS full length protein (mouse, UniProt P29477 1-1144, G450A)
T1 sequence (looked up): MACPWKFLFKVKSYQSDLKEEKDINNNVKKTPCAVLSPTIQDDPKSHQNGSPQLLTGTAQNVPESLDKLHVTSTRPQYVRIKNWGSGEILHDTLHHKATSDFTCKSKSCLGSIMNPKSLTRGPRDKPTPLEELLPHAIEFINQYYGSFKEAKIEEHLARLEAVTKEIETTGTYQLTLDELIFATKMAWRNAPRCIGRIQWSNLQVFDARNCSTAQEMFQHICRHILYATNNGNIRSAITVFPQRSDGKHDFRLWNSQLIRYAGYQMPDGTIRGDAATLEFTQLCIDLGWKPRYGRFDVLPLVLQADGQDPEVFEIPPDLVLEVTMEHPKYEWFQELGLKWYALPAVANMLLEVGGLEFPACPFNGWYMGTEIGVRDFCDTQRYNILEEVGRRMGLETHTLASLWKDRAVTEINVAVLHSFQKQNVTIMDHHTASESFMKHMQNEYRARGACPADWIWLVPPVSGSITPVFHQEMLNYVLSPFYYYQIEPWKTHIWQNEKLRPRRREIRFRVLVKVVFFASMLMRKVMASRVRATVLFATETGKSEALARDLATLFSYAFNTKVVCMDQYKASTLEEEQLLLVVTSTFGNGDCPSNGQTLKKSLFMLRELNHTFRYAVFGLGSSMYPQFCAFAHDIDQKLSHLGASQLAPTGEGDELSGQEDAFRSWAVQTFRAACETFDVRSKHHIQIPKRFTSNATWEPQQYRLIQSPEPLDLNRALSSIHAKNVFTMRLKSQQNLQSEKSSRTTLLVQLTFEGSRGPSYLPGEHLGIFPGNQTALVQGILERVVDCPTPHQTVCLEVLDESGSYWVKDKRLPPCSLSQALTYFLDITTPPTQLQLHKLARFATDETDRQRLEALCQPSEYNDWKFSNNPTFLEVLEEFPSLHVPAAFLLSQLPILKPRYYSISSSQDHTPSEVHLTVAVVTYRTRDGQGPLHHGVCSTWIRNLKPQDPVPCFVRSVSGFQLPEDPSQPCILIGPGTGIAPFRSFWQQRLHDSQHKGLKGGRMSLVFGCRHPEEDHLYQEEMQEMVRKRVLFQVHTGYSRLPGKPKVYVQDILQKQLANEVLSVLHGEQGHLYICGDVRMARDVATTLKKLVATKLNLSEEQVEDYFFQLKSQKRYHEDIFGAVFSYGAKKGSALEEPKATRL

B1: wild type Δ65iNOSoxy domain (oxygenase domain of inducible nitric oxide synthase, amino acid 66–498) (domain or fragment, mouse, UniProt P29477 66-498, looked up)
chain: LDKLHVTSTRPQYVRIKNWGSGEILHDTLHHKATSDFTCKSKSCLGSIMNPKSLTRGPRDKPTPLEELLPHAIEFINQYYGSFKEAKIEEHLARLEAVTKEIETTGTYQLTLDELIFATKMAWRNAPRCIGRIQWSNLQVFDARNCSTAQEMFQHICRHILYATNNGNIRSAITVFPQRSDGKHDFRLWNSQLIRYAGYQMPDGTIRGDAATLEFTQLCIDLGWKPRYGRFDVLPLVLQADGQDPEVFEIPPDLVLEVTMEHPKYEWFQELGLKWYALPAVANMLLEVGGLEFPACPFNGWYMGTEIGVRDFCDTQRYNILEEVGRRMGLETHTLASLWKDRAVTEINVAVLHSFQKQNVTIMDHHTASESFMKHMQNEYRARGGCPADWIWLVPPVSGSITPVFHQEMLNYVLSPFYYYQIEPWKTHIWQNE
B2: R375K Δ65iNOSoxy (amino acid 66–498) (domain or fragment, mouse, UniProt P29477 66-498, looked up)
chain: B1 chain with R310K
B3: R375D Δ65iNOSoxy (amino acid 66–498) (domain or fragment, mouse, UniProt P29477 66-498, looked up)
chain: B1 chain with R310D
B4: R375N Δ65iNOSoxy (amino acid 66–498) (domain or fragment, mouse, UniProt P29477 66-498, looked up)
chain: B1 chain with R310N

target: T1, G450A iNOS full length protein; experiment: cell-based or functional assay

Row | Binder | NO2^- production of the heterodimer, Griess assay | NO synthesis (min^-1) of the heterodimer, oxyhemoglobin assay
1 | B1 | 30.3 µM | 51.8 min⁻¹
2 | B2 | 7.8 µM | 17.6 min⁻¹
3 | B3 | 1.8 µM | 1.7 min⁻¹
4 | B4 | 6.3 µM | 8.6 min⁻¹

Target: the molecule itself
Experiment: SEC

Row | Binder | dimer content
5 | B2 | 100%
6 | B3 | 30%
7 | B4 | 38%
